Assay results reported in US20260174885A1.

Experiments:
[1] = biological target: human epidermal growth factor receptor (human EGFR) (human) (UniProt P00533); assay: flow cytometry, BD FACS Aria; WI-38 cells stained with PE-anti hEGFR antibody for 30 minutes on ice
[2] = biological target: human epidermal growth factor receptor (human EGFR) (human) (UniProt P00533); assay: flow cytometry, Beckman Coulter CytoFLEX S; U87MG cells stained with PE-anti hEGFR antibody for 30 minutes on ice
[3] = biological target: human epidermal growth factor receptor (human EGFR) (human) (UniProt P00533); assay: flow cytometry, Beckman Coulter CytoFLEX S; WI-38 cells stained with PE-anti hEGFR antibody for 30 minutes on ice
[4] = biological target: human epidermal growth factor receptor (human EGFR) (human) (UniProt P00533); assay: flow cytometry, BD FACS Aria; MCF-7 cells (low EGFR expression) stained with PE-anti hEGFR antibody for 30 minutes on ice
[5] = biological target: human epidermal growth factor receptor (human EGFR) (human) (UniProt P00533); assay: flow cytometry, BD FACS Aria; RencaEGFR M1 H cells (human EGFR on the cell surface) stained with PE-anti hEGFR antibody for 30 minutes on ice

## PE-anti hEGFR antibody (Biolegend, Cat #352904)
[1]
  MFI: 53300
[2]
  MFI: 1020
[3]
  MFI: 1100
[4]
  MFI: 2670
[5]
  MFI: 834000
